Experimental data taken from publication doi:10.1101/2020.09.19.304535.

Target: GmPUB13(252-630), purified protein (soybean (Glycine max))
Experiment: ITC

Avr1d, purified protein (ITC and gel filtration) (natural protein)
Kd: 0.089 µM
